In US20070280945A1 (Regeneron, published 2007):

T1: hIL-6R-hFc (human, UniProt P08887 20-358)
T1 construct: also called dimeric hIL-6R; Dimer; not shown: human Fc (hFc)
T1 sequence: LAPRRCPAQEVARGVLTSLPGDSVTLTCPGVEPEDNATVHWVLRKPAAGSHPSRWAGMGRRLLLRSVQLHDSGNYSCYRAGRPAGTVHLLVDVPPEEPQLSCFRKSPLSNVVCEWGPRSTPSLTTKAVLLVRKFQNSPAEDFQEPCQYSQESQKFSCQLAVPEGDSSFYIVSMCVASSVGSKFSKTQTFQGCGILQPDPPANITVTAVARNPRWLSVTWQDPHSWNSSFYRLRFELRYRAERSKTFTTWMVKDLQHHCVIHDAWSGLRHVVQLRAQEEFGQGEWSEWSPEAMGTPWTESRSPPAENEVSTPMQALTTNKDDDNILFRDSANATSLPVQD

T2: Recombinant monkey monomeric IL-6R protein (Macaca fascicularis, extracellular domain) (Macaca fascicularis, UniProt P08887 21-330 (human entry))
T2 construct: also called Monkey IL6R; monkey IL-6R
T2 chain: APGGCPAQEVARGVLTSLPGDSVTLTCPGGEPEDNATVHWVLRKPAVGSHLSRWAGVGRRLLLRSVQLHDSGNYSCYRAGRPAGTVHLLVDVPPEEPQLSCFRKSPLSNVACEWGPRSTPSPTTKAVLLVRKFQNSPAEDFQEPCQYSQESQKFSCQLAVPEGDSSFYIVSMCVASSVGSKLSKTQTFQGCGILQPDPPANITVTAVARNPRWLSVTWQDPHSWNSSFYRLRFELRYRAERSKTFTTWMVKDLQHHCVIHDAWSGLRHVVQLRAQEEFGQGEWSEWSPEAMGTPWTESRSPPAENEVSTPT

T3: hIL-6R recombinant protein (plate-coated, Example 5) (human, UniProt P08887 20-358, limits assumed)
T3 construct: also called antigen
T3 sequence: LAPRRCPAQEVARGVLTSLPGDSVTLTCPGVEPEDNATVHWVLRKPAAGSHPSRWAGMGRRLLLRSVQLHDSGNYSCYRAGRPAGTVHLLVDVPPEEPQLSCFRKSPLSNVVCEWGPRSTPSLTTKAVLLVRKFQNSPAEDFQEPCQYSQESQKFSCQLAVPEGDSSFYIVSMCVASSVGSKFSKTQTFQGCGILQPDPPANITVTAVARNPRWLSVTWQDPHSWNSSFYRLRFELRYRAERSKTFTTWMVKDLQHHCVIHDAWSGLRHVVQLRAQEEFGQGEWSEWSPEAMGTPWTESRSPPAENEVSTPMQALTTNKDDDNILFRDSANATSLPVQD

T4: hIL-6R on hIL-6-responsive human cells (XG-1 myeloma line, HepG2 hepatoma line) (human, UniProt P08887 20-468)
T4 sequence (looked up): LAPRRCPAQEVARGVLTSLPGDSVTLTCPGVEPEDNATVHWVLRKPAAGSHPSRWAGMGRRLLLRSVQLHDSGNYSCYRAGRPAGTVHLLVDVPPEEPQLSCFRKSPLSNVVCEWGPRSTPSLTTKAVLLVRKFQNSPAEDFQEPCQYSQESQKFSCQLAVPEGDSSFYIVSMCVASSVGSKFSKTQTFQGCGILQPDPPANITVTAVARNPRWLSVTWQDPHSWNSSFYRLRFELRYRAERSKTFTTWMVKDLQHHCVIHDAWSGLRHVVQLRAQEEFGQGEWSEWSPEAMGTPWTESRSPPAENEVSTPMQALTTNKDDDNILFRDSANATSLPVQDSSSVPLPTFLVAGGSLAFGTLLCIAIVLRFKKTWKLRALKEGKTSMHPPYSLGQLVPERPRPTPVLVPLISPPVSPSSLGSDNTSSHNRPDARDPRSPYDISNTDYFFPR

T5: recombinant hIL-6R protein, monomeric form (human, UniProt P08887 20-358)
T5 construct: also called monomeric hIL-6R; Human IL6R
T5 sequence: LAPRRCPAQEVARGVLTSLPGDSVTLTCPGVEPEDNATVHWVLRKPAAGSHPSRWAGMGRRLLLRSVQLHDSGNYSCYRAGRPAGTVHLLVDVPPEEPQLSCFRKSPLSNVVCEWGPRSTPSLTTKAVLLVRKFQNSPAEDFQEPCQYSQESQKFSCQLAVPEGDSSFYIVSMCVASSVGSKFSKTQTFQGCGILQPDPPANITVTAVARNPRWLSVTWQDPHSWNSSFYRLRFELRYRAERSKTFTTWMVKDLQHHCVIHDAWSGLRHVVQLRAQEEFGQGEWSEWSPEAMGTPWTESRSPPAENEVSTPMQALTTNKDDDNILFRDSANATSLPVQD

B1: VQ8A9-6 (antibody, V domains shown)
VH: EVQLVESGGNLVQPGRSLRLSCAASGFIFDDYAMHWVRQAPGKGLEWVSGISWNSGSIGYADSVKGRFTISRDNAKNSLYLQMNSLRAEDTALYYCAKDGGSSWLPFVYYYGMDVWGQGTTVTVSS
VL: EIVMTQSPATLSVSPGERATLSCRASQSISSNFAWYQQKPGQAPRLLIYGASTRATGIPARFSGSGSGTDFTLTISSLQSEDFAVYYCQQYSSWPPYTFGQGTKLEIK
notes: Human variable regions with mouse constant region (hybridoma-derived chimeric antibody); also called VQ8A9-6 mIgG1
B2: 248982-13-2-A9 (antibody, V domains shown)
VH: QVQLVQSGGGLVQPGRSLRLSCAASGFTFDDYAMHWVRQAPGKGLEWVSGISWNSGRVGYADSVKGRFTISRDNAKNSLYLQMNSLRAEDTALYYCTKGRDAFDIWGQGTMVTVSS
VL: DIVMTQSPSSVSASVGDRVTITCRASQGISSWLAWYQQKPGKAPKLLIYAASSLQSGVPSRFSGSGSGTDFTLTISSLQPEDFATYYCQQANSFPYTFGQGTKLEIK
B3: VQ8F11-21 (antibody, V domains shown)
VH: EVQLVESGGGLVQPGRSLRLSCAASRFTFDDYAMHWVRQAPGKGLEWVSGISWNSGRIGYADSVKGRFTISRDNAENSLFLQMNGLRAEDTALYYCAKGRDSFDIWGQGTMVTVSS
VL: DIQMTQSPSSVSASVGDRVTITCRASQGISSWLAWYQQKPGKAPKLLIYGASSLESGVPSRFSGSGSGTDFTLTISSLQPEDFASYYCQQANSFPYTFGQGTKLEIK
notes: Human variable regions with mouse constant region; also called VQ8F11-21 mIgG2a
B4: VQ8F11-21 modhIgG4 (antibody, V domains shown)
VH: EVQLVESGGGLVQPGRSLRLSCAASRFTFDDYAMHWVRQAPGKGLEWVSGISWNSGRIGYADSVKGRFTISRDNAENSLFLQMNGLRAEDTALYYCAKGRDSFDIWGQGTMVTVSS
VL: DIQMTQSPSSVSASVGDRVTITCRASQGISSWLAWYQQKPGKAPKLLIYGASSLESGVPSRFSGSGSGTDFTLTISSLQPEDFASYYCQQANSFPYTFGQGTKLEIK
notes: Modified human IgG4 constant region; also called VQ8F11-21 modified human IgG4
B5: VV6A9-5 (antibody, V domains shown)
VH: EVQLVESGGGLVQPGRSLRLSCAASGFTFDDYALHWVRQAPGKGLEWVSGVSWNGGRIGYADSVKGRFTISRDNAKNSLFLQMNSLRVEDTALYYCAKGRDAFDIWGQGTLVTVSS
VL: DIQMTQSPSSVSASVGDRVTITCRASQGISSWLAWYQQKPGKAPKLLIYAASSLQSGVPSRFSGSGSGTDFTLTISSLQPEDFATYYCQHAYSFPYTFGQGTKLEIK
notes: Human variable regions with mouse constant region; also called VV6A9-5 mIgG2a

Tests used:
[1] = target: recombinant hIL-6R protein, monomeric form (human) (UniProt P08887); test: Kinexa solution-phase competition immunoassay, monomeric hIL-6R
[2] = target: recombinant hIL-6R protein, monomeric form (human) (UniProt P08887); test: SPR (BIAcore), captured antibody, monomeric IL-6R 1.25-40 nM injected
[3] = target: Recombinant monkey monomeric IL-6R protein (Macaca fascicularis, extracellular domain) (Macaca fascicularis); test: as above
[4] = target: recombinant hIL-6R protein, monomeric form (human) (UniProt P08887); test: SPR (BIAcore), captured antibody, monomeric hIL-6R
[5] = target: hIL-6R on hIL-6-responsive human cells (XG-1 myeloma line, HepG2 hepatoma line) (human) (UniProt P08887); test: cell-based or functional assay
hIL-6R-hFc (human) = hIL-6R-hFc (human) (UniProt P08887); test: blocking ELISA: 100 pM hIL-6R-hFc premixed with varied antibody, free hIL-6R-hFc captured on hIL-6-coated plate
hIL-6R-hFc [6] = target: T1, hIL-6R-hFc; test: SPR (BIAcore), antibody captured on anti-mouse IgG surface, dimeric hIL-6R
[7] = target: T2, Recombinant monkey monomeric IL-6R …; test: SPR (BIAcore); reference: binding to human IL-6R; end of range tied to this antibody by Table 4 (0.569 against 0.377 nM)
[8] = target: T3, hIL-6R recombinant protein …; test: SPR (BIAcore) competition on hIL-6R; competitor: control antibody
[9] = target: T4, hIL-6R on hIL-6-responsive human cells …; test: cell-based or functional assay
hIL-6R-hFc [10] = target: T1, hIL-6R-hFc; test: SPR (BIAcore): hIL-6R-hFc captured, antibody injected, then 50 nM hIL-6; percent reduction in hIL-6 binding
[11] = target: T4, hIL-6R on hIL-6-responsive human cells …; test: cell-based or functional assay; remark: listed apart in the source
hIL-6R-hFc [12] = target: T1, hIL-6R-hFc; test: competition ELISA: antibody premixed with serial dilutions of hIL-6R-hFc, free antibody detected on hIL-6R-hFc-coated plate
[13] = target: T5, recombinant hIL-6R protein, monomeric …; test: SPR (BIAcore), captured mouse-IgG antibody, monomeric hIL-6R 1.56-12.5 nM
[14] = target: T5, recombinant hIL-6R protein, monomeric …; test: SPR (BIAcore), antibody captured on anti-mouse IgG surface, monomeric hIL-6R
[15] = target: T5, recombinant hIL-6R protein, monomeric …; test: SPR (BIAcore), antibody captured on goat anti-mouse Fc, monomeric IL-6R 1.25-40 nM injected
[16] = target: T2, Recombinant monkey monomeric IL-6R …; test: as above
hIL-6R-hFc [17] = target: T1, hIL-6R-hFc; test: blocking ELISA: 100 pM hIL-6R-hFc premixed with varied antibody, free hIL-6R-hFc captured on hIL-6-coated plate
[18] = target: T5, recombinant hIL-6R protein, monomeric …; test: Kinexa solution-phase competition immunoassay, monomeric hIL-6R
[19] = target: T3, hIL-6R recombinant protein …; test: competition ELISA on hIL-6R-coated plate presaturated with competitor control antibody; test antibody 50 ng/ml
[20] = target: T5, recombinant hIL-6R protein, monomeric …; test: SPR (BIAcore), captured antibody, monomeric hIL-6R
[21] = target: T2, Recombinant monkey monomeric IL-6R …; test: SPR (BIAcore); reference: binding to human IL-6R; end of range tied to this antibody by Table 4 (0.143 against 0.051 nM)
[22] = target: T5, recombinant hIL-6R protein, monomeric …; test: SPR (BIAcore), captured mouse-IgG antibody, monomeric hIL-6R 1.56-12.5 nM; mIgG2a isotype
[23] = target: T5, recombinant hIL-6R protein, monomeric …; test: SPR (BIAcore), antibody captured on goat anti-human Fc, monomeric hIL-6R 1.56-12.5 nM; modhIgG4 isotype
[24] = target: T5, recombinant hIL-6R protein, monomeric …; test: SPR (BIAcore), antibody captured on goat anti-human Fc, monomeric hIL-6R 1.56-12.5 nM

Molecule	Kd (hIL-6R-hFc [6]) [nM]	% reduction of binding by control antibody [8] [%]	HepG2/Stat3 Luciferase activity IC50 [9] [nM]	XG-1 cell proliferation Inhibition IC50 [9] [nM]	hIL6/hIL6R Binding Inhibition (%) (hIL-6R-hFc [10])	HepG2/STAT3 luciferase assay IC50 [11] [nM]	IC50 (hIL-6R-hFc [12]) [nM]	Kd [13] [nM]	koff [13] [s⁻¹]	kon [13] [M⁻¹ s⁻¹]	Kd [14] [nM]	Kd [15] [nM]	koff [15] [s⁻¹]	kon [15] [M⁻¹ s⁻¹]	Kd [16] [nM]	koff [16] [s⁻¹]	kon [16] [M⁻¹ s⁻¹]	IC50 (hIL-6R-hFc [17]) [nM]	Kd [18] [nM]	% reduction of binding by control antibody [19] [%]	other results
humanized monoclonal antibody to human IL-6R (U.S. Patent No. 5,817,790 SEQ ID NO:69 and 71)																					Kd [1]: 1.96 nM; Kd [2]: 0.963 nM; Kd [3]: 1.17 nM; Kd [4]: 1.79 nM; HepG2/Stat3 Luciferase activity IC50 [5]: 0.854 nM; XG-1 cell proliferation Inhibition IC50 [5]: 1.5 nM; IC50 (hIL-6R-hFc (human)): 2.2 nM
B1	0.101	26	0.097	0.4	68	0.097	0.004	0.222	0.000221	995000	0.222	0.377	0.000276	732000	0.569	0.000416	731000	0.39	0.12	3	fold difference of KD, monkey against human receptor [7]: 1.5 fold
B2							0.054														Kd [20]: 2.87 nM
B3	0.023	96	0.135	0.62	98	0.135	0.008		5.27e-05	786000	0.067	0.051	4.38e-05	851000	0.143	4.86e-05	339000	0.12	0.009	79	fold difference of KD, monkey against human receptor [21]: 3 fold; Kd [22]: 0.067 nM
B4						0.249															koff [23]: 4.7e-05 s⁻¹; Kd [24]: 0.053 nM; kon [24]: 881000 M⁻¹ s⁻¹
B5	0.146	96	0.188	1.1	100	0.188	0.005	0.097	7.52e-05	772000	0.097	0.162	8.41e-05	518000	0.154	7.7e-05	500000	0.35	0.032	84	
